# Laboratory results from patent publication US20190008947A1.
# Values joined by “and” are separate entries in the source; they are usually repeats but may differ in a detail not shown here. Equal entries are not always repeated. Where two headings read alike, the source gives them in different places.
# How the values were obtained:
# A*03:01, P04439 [1] = conditions: modification not given
# A*11:01, P04439 [2] = conditions: modification not given
# A*24:02, P16209 [3] = conditions: modification not given
# B*07:02, P01889 = assay: ProImmune REVEAL MHC-peptide binding assay, B*07:02
# H-2Kb (mouse), P01901 = target: T1, H-2Kb (mouse), P01901; assay: ProImmune REVEAL MHC-peptide binding assay, H-2Kb
# T1 chain: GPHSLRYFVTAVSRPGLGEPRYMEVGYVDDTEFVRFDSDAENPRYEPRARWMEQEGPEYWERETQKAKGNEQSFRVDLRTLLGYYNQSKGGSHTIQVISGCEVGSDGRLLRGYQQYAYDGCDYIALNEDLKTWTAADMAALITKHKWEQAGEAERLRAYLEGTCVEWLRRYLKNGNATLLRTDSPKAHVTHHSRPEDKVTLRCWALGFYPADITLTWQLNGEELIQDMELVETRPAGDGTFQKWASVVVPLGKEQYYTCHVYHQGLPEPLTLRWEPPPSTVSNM
# A*11:01, P04439 [4] = conditions: modification not given; remark: listed apart in the source
# A*03:01, P04439 [5] = target: T2, A*03:01, P04439; conditions: modification not given
# T2 chain: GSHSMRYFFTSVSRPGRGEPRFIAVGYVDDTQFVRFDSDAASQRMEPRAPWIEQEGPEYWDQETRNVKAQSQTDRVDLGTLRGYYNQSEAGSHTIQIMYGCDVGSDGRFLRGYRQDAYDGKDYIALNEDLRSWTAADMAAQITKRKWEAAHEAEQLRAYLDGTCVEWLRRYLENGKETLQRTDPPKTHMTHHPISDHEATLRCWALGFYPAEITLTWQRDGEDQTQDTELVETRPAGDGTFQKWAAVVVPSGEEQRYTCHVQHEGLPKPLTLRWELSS
# A*11:01, P04439 [6] = conditions: modification not given; remark: listed apart in the source
# A*24:02, P16209 [7] = conditions: modification not given; remark: listed apart in the source
# A*03:01, P04439 [8] = conditions: modification not given; remark: listed apart in the source
# A*11:01, P04439 [9] = conditions: modification not given; remark: listed apart in the source
# A*11:01, P04439 [10] = conditions: modification not given; remark: listed apart in the source
# A*11:01, P04439 [11] = conditions: modification not given; remark: listed apart in the source
# A*03:01, P04439 [12] = target: T2, A*03:01, P04439; conditions: modification not given
# HLA-A*32:01 [13] = assay: HLA binding; serotype 1; conditions: chains peptide; modification not given
# HLA-B*40:01 [14] = assay: HLA binding; serotype 1; conditions: chains peptide; modification not given
# B*27:05, P13750 = assay: ProImmune REVEAL MHC-peptide binding assay, B*27:05
# [15] = target: T3, HLA-A*02:01 (human), P04439; conditions: chains peptide; modification not given
# T3 chain: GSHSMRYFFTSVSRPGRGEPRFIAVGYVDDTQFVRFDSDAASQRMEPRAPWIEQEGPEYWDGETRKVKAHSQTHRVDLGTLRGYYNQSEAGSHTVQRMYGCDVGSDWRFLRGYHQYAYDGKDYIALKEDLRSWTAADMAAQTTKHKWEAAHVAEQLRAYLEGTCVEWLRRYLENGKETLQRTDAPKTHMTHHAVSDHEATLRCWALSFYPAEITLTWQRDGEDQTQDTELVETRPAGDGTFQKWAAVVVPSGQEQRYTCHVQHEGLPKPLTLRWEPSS
# [16] = target: HLA-A*02:01 (human), P04439; assay: ProImmune REVEAL MHC-peptide binding assay, A*02:01, score against positive control
# [17] = target: T3, HLA-A*02:01 (human), P04439; conditions: chains peptide; modification not given
# [18] = target: HLA-A*02:01 (human), P04439
# A*11:01, P04439 [19] = conditions: modification not given; remark: listed apart in the source
# A*11:01, P04439 [20] = conditions: modification not given; remark: listed apart in the source
# A*24:02, P16209 [21] = conditions: modification not given; remark: listed apart in the source
# HLA-B*15:01 = assay: HLA binding; serotype 3; conditions: chains peptide; modification not given
# HLA-A*32:01 [22] = assay: HLA binding; serotype 3; conditions: chains peptide; modification not given
# HLA-B*40:01 [23] = assay: HLA binding; serotype 3; conditions: chains peptide; modification not given
# A*24:02, P16209 [24] = conditions: modification not given; remark: listed apart in the source
# HLA-A*32:01 [25] = assay: HLA binding; serotype 4; conditions: chains peptide; modification not given
# HLA-B*40:01 [26] = assay: HLA binding; serotype 4; conditions: chains peptide; modification not given
binder,measurement,setting,value
ALTLHWFRK,IC50,"A*03:01, P04439 [1]",34 nM
same,IC50,"A*11:01, P04439 [2]",47 nM
SYTMCSGKF,IC50,"A*24:02, P16209 [3]",222 nM
SRNSTHEMY (modifications not checked),REVEAL ® score at 0 h,"B*07:02, P01889",52
QQRVFKEKV (modifications not checked),REVEAL ® score at 0 h,"H-2Kb (mouse), P01901",63.4
ALKINWYRK,IC50,"A*11:01, P04439 [4]",376 nM
same,IC50,"A*03:01, P04439 [5]",193 nM
VTFKTAHAK,IC50,"A*11:01, P04439 [6]",16 nM
SYVMCTGSF,IC50,"A*24:02, P16209 [7]",104 nM
ATFTMRLLS (modifications not checked),REVEAL ® score at 0 h,"H-2Kb (mouse), P01901",55.6
ALKLSWFKK,IC50,"A*03:01, P04439 [8]",42 nM
same,IC50,"A*11:01, P04439 [9]",59 nM
VTFKVPHAK,IC50,"A*11:01, P04439 [10]",14 nM
QLKLNWFKK,IC50,"A*11:01, P04439 [11]",778 nM
same,IC50,"A*03:01, P04439 [12]",151 nM
"KQWFLDLPL […, serotype 1, listing 1 of 2 here]",IC50,HLA-A*32:01 [13],8 nM
same,IC50,HLA-B*40:01 [14],398 nM
ARGYISTRV (modifications not checked),REVEAL ® score at 0 h,"B*27:05, P13750",125
KQWFLDLPL (modifications not checked) [… (SEQ ID NO: 341)],IC50,[15],11 nM
same,REVEAL Score,[16],86
LMYFHRRDL (modifications not checked),REVEAL ® score at 0 h,"H-2Kb (mouse), P01901",54.9
RQWFFDLPL (modifications not checked) [… (SEQ ID NO: 343)],IC50,[17],39 nM and 12 nM
same,REVEAL Score,[16],80.5
TALTGATEI (modifications not checked) [… (SEQ ID NO: 344)],REVEAL Score,[18],0.9
LAPTRVVAA (modifications not checked),REVEAL ® score at 0 h,"H-2Kb (mouse), P01901",102
VTFKNPHAK,IC50,"A*11:01, P04439 [19]",17 nM
LMCHATFTM (modifications not checked),REVEAL ® score at 0 h,"B*27:05, P13750",98.2
same,REVEAL ® score at 0 h,"H-2Kb (mouse), P01901",59
HATFTMRLL (modifications not checked),REVEAL ® score at 0 h,"H-2Kb (mouse), P01901",69.5
VTFKNAHAK,IC50,"A*11:01, P04439 [20]",17 nM
RRGDLPVWL (modifications not checked),REVEAL ® score at 0 h,"B*27:05, P13750",145
PLSRNSTHE (modifications not checked),REVEAL ® score at 0 h,"B*07:02, P01889",65
SYAMCLNTF,IC50,"A*24:02, P16209 [21]",540 nM
RQWFFDLPL,IC50,HLA-B*15:01,80 nM
same,IC50,HLA-A*32:01 [22],7 nM
same,IC50,HLA-B*40:01 [23],51 nM
LSRNSTHEM (modifications not checked),REVEAL ® score at 0 h,"B*07:02, P01889",124
same,REVEAL ® score at 0 h,"H-2Kb (mouse), P01901",51.1
CHATFTMRL (modifications not checked),REVEAL ® score at 0 h,"H-2Kb (mouse), P01901",60.3
SYSMCTGKF,IC50,"A*24:02, P16209 [24]",115 nM
"KQWFLDLPL […, serotype 4, listing 2 of 2 here]",IC50,HLA-A*32:01 [25],8 nM
same,IC50,HLA-B*40:01 [26],398 nM
FKPGTSGSP (modifications not checked),REVEAL ® score at 0 h,"H-2Kb (mouse), P01901",45.7
FKLTYQNKV (modifications not checked),REVEAL ® score at 0 h,"B*27:05, P13750",53.7
YGLNTFTNM (modifications not checked),REVEAL ® score at 0 h,"H-2Kb (mouse), P01901",75.4
